Laboratory results from the supplement of paper PMC10126150.
± gives the standard deviation of the averaged measurements.

Test system: ATP
Test: switch fluorescence ratio, 500 uM ATP over buffer (Cy3 cluster intensity, sum of 5 cycles each) (fold (ratio)); higher = stronger signal-on switching upon ATP binding; sequences stand for … in TCGTCGGCAGCGTCAGATGTGTATAAGAGACAGTTTTTTTTTTTTTTTTTTTTTTTTT…TC
Details: aptamer strand: ATP DNA aptamer (quencher-CACCTGGGGGAGTATTGCGGAGGAAGG + anchor), 100 nM annealed; ATP concentration: 500 uM
Summary of the method: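 For every switch-domain sequence, the fluorescence ratio is the mean of per-cluster values, each being summed target-cycle Cy3 intensity over summed buffer-cycle Cy3 intensity. Clusters outside 100-1000 RFU were excluded. On a modified Illumina MiSeq flow-cell, the Cy3-labelled switching-strand clusters were annealed to 100 nM quencher-labelled ATP aptamer, imaged in selection buffer and then after 15 min with 500 uM ATP at 22 °C. Five such cycles were run, with NaOH stripping and re-annealing between them.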
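Also: ATP exposure 15 min at 22 °C before imaging.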

Sequence | switch fluorescence ratio
CGGGTAAGTT | 1.09 ± 0.2
CGGGTAATAG | 1.46 ± 0.16
CGGGTACCAG | 1.01 ± 0.043
CGGGTACGTG | 1.02 ± 0.018
CGGGTAGCG | 0.969 ± 0.013
CGGGTAGGGA | 1.01 ± 0.022
CGGGTATGGC | 1.02 ± 0.063
CGGGTATTTG | 1.04 ± 0.028
CGGGTCCTAA | 0.9795 ± 0.0078
CGGGTCGAAA | 0.982 ± 0.049
CGGGTCTGCT | 0.985 ± 0.022
CGGGTGCAAA | 1.08 ± 0.016
CGGGTGCGGT | 0.951 ± 0.045
CGGGTGGGG | 1.03 ± 0.071
CGGGTGGTGG | 0.99 ± 0.017
CGGGTGTGAC | 1.02 ± 0.023
CGGGTGTGGG | 1.009 ± 0.0012
CGGGTTACGG | 0.9728 ± 0.0055
CGGGTTAGAG | 0.968 ± 0.019
CGGGTTGGTT | 1.032 ± 0.0056
CGGGTTGTAG | 1 ± 0.036
CGGGTTGTCA | 0.9969 ± 0.0072

Sequence | switch fluorescence ratio
CGGGTTGTCG | 1.02 ± 0.05
CGGGTTTACG | 1 ± 0.025
CGGTAAACAC | 1.06 ± 0.047
CGGTAACCTT | 1.31 ± 0.44
CGGTAACTAT | 1.02 ± 0.017
CGGTAAGGGC | 0.966 ± 0.038
CGGTAATTGG | 1.01 ± 0.02
CGGTACGGGG | 0.979 ± 0.018
CGGTACTATA | 1.055 ± 0.0086
CGGTAGAGTA | 0.98 ± 0.062
CGGTAGATGT | 1 ± 0.034
CGGTAGCTCT | 0.989 ± 0.037
CGGTAGGAAC | 1.01 ± 0.028
CGGTAGGCTT | 0.996 ± 0.037
CGGTAGTGAG | 1.04 ± 0.014
CGGTAGTTGG | 0.983 ± 0.019
CGGTATAACT | 1 ± 0.011
CGGTATAGTA | 0.983 ± 0.032
CGGTATCTAT | 0.96436 ± 0.00057
CGGTATGTAT | 1.02 ± 0.042
CGGTCGGGGT | 0.995 ± 0.045
CGGTCGGGTA | 1.01 ± 0.031

Sequence | switch fluorescence ratio
CGGTCGGGTC | 1.01 ± 0.028
CGGTCGTAAC | 1.04 ± 0.018
CGGTCTGGTC | 0.987 ± 0.018
CGGTCTGTTA | 1.04 ± 0.11
CGGTCTTGGG | 0.9536 ± 0.0085
CGGTGAAGAA | 0.989 ± 0.013
CGGTGAATCT | 1.01 ± 0.03
CGGTGACGGG | 0.959 ± 0.014
CGGTGACTTG | 1.01 ± 0.017
CGGTGATCGT | 1.02 ± 0.015
CGGTGATGGG | 1.01 ± 0.031
CGGTGATTTT | 1.02 ± 0.03
CGGTGCATGA | 1.027 ± 0.0092
CGGTGCGCTG | 0.9964 ± 0.0016
CGGTGCGGGA | 1.01 ± 0.011
CGGTGGACGA | 0.9977 ± 0.005
CGGTGGACTG | 1.07 ± 0.014
CGGTGGCAGC | 0.983 ± 0.038
CGGTGGGCGC | 0.974 ± 0.091
CGGTGGTGGC | 1.13 ± 0.015
CGGTGTACTG | 0.992 ± 0.013
CGGTGTAGGG | 0.99 ± 0.03

Sequence | switch fluorescence ratio
CGGTGTAGTC | 1.012 ± 0.01
CGGTGTGACA | 0.993 ± 0.051
CGGTGTGGGA | 0.996 ± 0.044
CGGTGTGGGT | 1.03 ± 0.0023
CGGTGTTGGA | 0.978 ± 0.039
CGGTTAAACG | 0.975 ± 0.019
CGGTTAAGAT | 0.993 ± 0.012
CGGTTACATT | 1 ± 0.014
CGGTTACCAG | 1.03 ± 0.013
CGGTTAGATG | 1 ± 0.047
CGGTTAGGGG | 0.9829 ± 0.0021
CGGTTAGTTT | 0.97 ± 0.034
CGGTTATAAG | 0.9679 ± 0.00054
CGGTTATCTA | 1.01 ± 0.054
CGGTTATTGG | 0.958 ± 0.041
CGGTTCAGTT | 1.036 ± 0.0022
CGGTTCCTAA | 0.994 ± 0.016
CGGTTGATGG | 0.969 ± 0.074
CGGTTGGCGA | 1.02 ± 0.011
